Experimental data from patent US20150272562A1 (ETHICON, published 2015).

What was measured:
[1] = target: T1, fibrin monomers, dimers and/or oligomers (UniProt P02671 36-629; P02675 45-491; P02679 27-437); assay: cell-based or functional assay
T1 sequence (looked up) 1: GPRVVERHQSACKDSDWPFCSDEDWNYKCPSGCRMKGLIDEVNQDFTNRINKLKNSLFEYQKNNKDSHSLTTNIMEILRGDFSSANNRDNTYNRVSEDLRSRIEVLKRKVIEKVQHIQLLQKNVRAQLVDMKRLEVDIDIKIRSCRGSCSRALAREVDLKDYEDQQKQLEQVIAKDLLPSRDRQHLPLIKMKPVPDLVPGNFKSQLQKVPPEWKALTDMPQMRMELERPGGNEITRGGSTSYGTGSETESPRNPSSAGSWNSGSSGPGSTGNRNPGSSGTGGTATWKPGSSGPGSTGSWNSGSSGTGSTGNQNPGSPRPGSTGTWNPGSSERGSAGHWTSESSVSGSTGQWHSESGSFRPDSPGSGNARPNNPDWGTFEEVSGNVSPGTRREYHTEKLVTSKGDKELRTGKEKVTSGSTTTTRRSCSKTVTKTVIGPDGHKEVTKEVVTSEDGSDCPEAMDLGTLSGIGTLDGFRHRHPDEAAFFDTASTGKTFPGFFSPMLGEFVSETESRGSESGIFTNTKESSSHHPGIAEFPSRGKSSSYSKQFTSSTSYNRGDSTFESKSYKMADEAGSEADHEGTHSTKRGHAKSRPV
T1 sequence (looked up) 2: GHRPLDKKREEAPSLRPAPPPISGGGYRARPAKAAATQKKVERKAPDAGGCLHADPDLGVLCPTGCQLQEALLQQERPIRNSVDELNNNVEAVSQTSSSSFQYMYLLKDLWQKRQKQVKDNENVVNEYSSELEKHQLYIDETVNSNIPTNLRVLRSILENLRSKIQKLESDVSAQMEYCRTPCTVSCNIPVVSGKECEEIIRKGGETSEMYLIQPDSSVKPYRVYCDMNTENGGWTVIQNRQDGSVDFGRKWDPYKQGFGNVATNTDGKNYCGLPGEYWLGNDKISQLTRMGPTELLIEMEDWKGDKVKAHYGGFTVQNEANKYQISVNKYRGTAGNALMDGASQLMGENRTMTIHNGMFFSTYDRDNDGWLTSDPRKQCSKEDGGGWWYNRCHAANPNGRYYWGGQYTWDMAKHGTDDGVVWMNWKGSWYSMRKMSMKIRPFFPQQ
T1 sequence (looked up) 3: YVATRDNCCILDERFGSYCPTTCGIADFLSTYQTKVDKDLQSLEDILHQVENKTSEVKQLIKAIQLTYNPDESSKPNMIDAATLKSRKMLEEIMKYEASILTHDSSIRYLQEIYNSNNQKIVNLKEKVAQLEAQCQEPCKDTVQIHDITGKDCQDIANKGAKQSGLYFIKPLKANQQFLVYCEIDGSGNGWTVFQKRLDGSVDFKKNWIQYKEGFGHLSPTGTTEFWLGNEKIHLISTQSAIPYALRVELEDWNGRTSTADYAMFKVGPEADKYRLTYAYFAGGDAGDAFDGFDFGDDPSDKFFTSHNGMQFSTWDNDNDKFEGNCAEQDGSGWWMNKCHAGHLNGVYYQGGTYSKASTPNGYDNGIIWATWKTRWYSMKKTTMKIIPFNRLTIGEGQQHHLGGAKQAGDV

[2] = target: T1, fibrin monomers, dimers and/or oligomers; assay: cell-based or functional assay; remark: listed apart in the source

fibrin polymerization; 40 mM GPRP, molar ratio above 340:1 GPRP:fibrin [1]: > 14 days | Time to clot (cessation of flow on tube inversion); GPRP 0.1 mM, 1.1-fold GPRP:fibrin, 3% fibrin, thrombin 100 IU/ml [2]: 5 s | Time to clot (cessation of flow on tube inversion); GPRP 0.2 mM, 2.3-fold GPRP:fibrin, 3% fibrin, thrombin 100 IU/ml [2]: 7 s | Time to clot (cessation of flow on tube inversion); GPRP 0.5 mM, 5.7-fold GPRP:fibrin, 3% fibrin, thrombin 100 IU/ml [2]: 11 s | Time to clot (cessation of flow on tube inversion); GPRP 1 mM, 11.3-fold GPRP:fibrin, 3% fibrin, thrombin 100 IU/ml [2]: 13 s | Time to clot (cessation of flow on tube inversion); GPRP 1.5 mM, 17-fold GPRP:fibrin, 3% fibrin, thrombin 100 IU/ml [2]: 22 s | Time to clot (cessation of flow on tube inversion); GPRP 2 mM, 22.7-fold GPRP:fibrin, 3% fibrin, thrombin 100 IU/ml [2]: 28 s | Time to clot (cessation of flow on tube inversion); GPRP 3 mM, 34-fold GPRP:fibrin, 3% fibrin, thrombin 100 IU/ml [2]: 2.5 min | Time to clot (cessation of flow on tube inversion); GPRP 4 mM, 45-fold GPRP:fibrin, 3% fibrin, thrombin 100 IU/ml [2]: 8 min | Time to clot (cessation of flow on tube inversion); GPRP 5 mM, 56.7-fold GPRP:fibrin, 3% fibrin, thrombin 100 IU/ml [2]: 15 min
Binder: GPRP [GPRP peptide (Gly-Pro-Arg-Pro)]
